Our source for the Km and kcat values is PMC5606096, “High-level expression and characterization of a novel cutinase from Malbranchea cinnamomea suitable for butyl butyrate production” (Biotechnology for Biofuels, 2017).

The subject of data set [1] is T1, CCCC(=O)Oc1ccc([N+](=O)[O-])cc1.
T1 construct: signal peptide (16 residues) removed, 215-residue precursor; pPIC9K secreted from Pichia pastoris GS115; purified on Q Sepharose; no tag mentioned
Nature of the data set: p-nitrophenol release, Michaelis-Menten fit (GraFit). The format is biochemical, Malbranchea cinnamomea. Particulars: 50 mM Tris-HCl pH 8.0, 45 °C, 5 min.

For data set [2], the system named is T2, CCCCCC(=O)Oc1ccc([N+](=O)[O-])cc1.
T2 construct: signal peptide (16 residues) removed, 215-residue precursor; pPIC9K secreted from Pichia pastoris GS115; purified on Q Sepharose; no tag mentioned
The description is as above. The format is biochemical, Malbranchea cinnamomea. The settings on record: 50 mM Tris-HCl pH 8.0, 45 °C, 5 min.

Sequence of McCut (Malbranchea cinnamomea) (chain, as listed by the source): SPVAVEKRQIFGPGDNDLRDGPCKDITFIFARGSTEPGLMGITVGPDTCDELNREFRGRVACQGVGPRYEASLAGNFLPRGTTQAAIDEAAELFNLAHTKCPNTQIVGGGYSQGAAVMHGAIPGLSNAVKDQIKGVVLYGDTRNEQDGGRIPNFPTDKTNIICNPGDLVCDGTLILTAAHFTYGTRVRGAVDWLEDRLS

In general, Km refers to the substrate concentration at which the rate is half of its maximum. Broadly, the kcat is the number of substrate molecules converted per active site and unit of time at saturation. As for McCut (Malbranchea cinnamomea), the Km in data set [1] was found to be 660 µM; in data set [2], 270 µM. In addition, the kcat in data set [1] and in data set [2] was 0.46 s⁻¹ each time.
